Patent EP2814500B1
pKd: −log10 of the molar value.

Target: mouse glycophorin-A (GYPA) on the mouse erythrocyte surface (mouse) (UniProt P14220)
Assay: equilibrium binding to mouse erythrocytes, flow cytometry, one-site binding fit

Chain of ERY1-OVA (ovalbumin chemically conjugated with ERY1 peptide through SMCC) (P01012 2-386, form in doubt): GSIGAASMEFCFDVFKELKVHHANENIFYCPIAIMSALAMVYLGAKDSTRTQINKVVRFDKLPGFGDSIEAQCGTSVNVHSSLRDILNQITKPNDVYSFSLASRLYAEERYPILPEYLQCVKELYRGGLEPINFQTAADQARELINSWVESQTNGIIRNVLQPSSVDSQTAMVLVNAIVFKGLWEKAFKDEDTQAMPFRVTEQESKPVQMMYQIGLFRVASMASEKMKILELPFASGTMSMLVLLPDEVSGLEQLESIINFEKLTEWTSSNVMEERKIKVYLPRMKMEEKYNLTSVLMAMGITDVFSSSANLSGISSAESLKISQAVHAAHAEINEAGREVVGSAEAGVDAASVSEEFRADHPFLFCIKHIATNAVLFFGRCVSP

ERY1-OVA (ovalbumin chemically conjugated with ERY1 peptide through SMCC) (from UniProt P01012 2-386)
pKd: 8.21
